Measured values as given in patent US20230287118A1 (published 2023).

What was measured:
[1] = molecular target: T1, human CD20 (human, UniProt P11836 1-297); experiment: cell-based or functional assay
T1 sequence (looked up): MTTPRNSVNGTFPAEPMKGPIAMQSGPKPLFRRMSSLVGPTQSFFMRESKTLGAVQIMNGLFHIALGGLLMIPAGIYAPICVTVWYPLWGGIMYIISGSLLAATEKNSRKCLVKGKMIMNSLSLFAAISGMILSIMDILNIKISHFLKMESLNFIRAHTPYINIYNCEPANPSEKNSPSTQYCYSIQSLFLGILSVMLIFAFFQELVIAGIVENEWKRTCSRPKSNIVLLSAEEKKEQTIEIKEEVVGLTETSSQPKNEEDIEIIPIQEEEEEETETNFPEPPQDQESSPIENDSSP

[2] = molecular target: T1, human CD20; experiment: cell-based or functional assay; remark: listed apart in the source
[3] = molecular target: T1, human CD20; experiment: cell-based or functional assay; remark: listed apart in the source
[4] = molecular target: T1, human CD20; experiment: cell-based or functional assay; remark: listed apart in the source
[5] = molecular target: T2, human CD3 (human, UniProt P07766 23-207); experiment: cell-based or functional assay
[6] = molecular target: human Her3 (human, UniProt P21860 20-1342); experiment: cell-based or functional assay
[7] = molecular target: T2, human CD3; experiment: cell-based or functional assay; remark: listed apart in the source
[8] = molecular target: T3, human MCSP (melanoma-associated chondroitin sulfate proteoglycan, chondroitin sulfate proteoglycan 4) (human, UniProt Q6UVK1 30-2322); experiment: flow cytometry on MCSP-expressing MV-3 cells
T3 construct: whole, on cells; also called hMCSP

[9] = molecular target: T2, human CD3; experiment: flow cytometry on Jurkat-NFAT cells
[10] = molecular target: T3, human MCSP (melanoma-associated …); experiment: cell-based or functional assay

T3 sequence (Q6UVK1 30-2322): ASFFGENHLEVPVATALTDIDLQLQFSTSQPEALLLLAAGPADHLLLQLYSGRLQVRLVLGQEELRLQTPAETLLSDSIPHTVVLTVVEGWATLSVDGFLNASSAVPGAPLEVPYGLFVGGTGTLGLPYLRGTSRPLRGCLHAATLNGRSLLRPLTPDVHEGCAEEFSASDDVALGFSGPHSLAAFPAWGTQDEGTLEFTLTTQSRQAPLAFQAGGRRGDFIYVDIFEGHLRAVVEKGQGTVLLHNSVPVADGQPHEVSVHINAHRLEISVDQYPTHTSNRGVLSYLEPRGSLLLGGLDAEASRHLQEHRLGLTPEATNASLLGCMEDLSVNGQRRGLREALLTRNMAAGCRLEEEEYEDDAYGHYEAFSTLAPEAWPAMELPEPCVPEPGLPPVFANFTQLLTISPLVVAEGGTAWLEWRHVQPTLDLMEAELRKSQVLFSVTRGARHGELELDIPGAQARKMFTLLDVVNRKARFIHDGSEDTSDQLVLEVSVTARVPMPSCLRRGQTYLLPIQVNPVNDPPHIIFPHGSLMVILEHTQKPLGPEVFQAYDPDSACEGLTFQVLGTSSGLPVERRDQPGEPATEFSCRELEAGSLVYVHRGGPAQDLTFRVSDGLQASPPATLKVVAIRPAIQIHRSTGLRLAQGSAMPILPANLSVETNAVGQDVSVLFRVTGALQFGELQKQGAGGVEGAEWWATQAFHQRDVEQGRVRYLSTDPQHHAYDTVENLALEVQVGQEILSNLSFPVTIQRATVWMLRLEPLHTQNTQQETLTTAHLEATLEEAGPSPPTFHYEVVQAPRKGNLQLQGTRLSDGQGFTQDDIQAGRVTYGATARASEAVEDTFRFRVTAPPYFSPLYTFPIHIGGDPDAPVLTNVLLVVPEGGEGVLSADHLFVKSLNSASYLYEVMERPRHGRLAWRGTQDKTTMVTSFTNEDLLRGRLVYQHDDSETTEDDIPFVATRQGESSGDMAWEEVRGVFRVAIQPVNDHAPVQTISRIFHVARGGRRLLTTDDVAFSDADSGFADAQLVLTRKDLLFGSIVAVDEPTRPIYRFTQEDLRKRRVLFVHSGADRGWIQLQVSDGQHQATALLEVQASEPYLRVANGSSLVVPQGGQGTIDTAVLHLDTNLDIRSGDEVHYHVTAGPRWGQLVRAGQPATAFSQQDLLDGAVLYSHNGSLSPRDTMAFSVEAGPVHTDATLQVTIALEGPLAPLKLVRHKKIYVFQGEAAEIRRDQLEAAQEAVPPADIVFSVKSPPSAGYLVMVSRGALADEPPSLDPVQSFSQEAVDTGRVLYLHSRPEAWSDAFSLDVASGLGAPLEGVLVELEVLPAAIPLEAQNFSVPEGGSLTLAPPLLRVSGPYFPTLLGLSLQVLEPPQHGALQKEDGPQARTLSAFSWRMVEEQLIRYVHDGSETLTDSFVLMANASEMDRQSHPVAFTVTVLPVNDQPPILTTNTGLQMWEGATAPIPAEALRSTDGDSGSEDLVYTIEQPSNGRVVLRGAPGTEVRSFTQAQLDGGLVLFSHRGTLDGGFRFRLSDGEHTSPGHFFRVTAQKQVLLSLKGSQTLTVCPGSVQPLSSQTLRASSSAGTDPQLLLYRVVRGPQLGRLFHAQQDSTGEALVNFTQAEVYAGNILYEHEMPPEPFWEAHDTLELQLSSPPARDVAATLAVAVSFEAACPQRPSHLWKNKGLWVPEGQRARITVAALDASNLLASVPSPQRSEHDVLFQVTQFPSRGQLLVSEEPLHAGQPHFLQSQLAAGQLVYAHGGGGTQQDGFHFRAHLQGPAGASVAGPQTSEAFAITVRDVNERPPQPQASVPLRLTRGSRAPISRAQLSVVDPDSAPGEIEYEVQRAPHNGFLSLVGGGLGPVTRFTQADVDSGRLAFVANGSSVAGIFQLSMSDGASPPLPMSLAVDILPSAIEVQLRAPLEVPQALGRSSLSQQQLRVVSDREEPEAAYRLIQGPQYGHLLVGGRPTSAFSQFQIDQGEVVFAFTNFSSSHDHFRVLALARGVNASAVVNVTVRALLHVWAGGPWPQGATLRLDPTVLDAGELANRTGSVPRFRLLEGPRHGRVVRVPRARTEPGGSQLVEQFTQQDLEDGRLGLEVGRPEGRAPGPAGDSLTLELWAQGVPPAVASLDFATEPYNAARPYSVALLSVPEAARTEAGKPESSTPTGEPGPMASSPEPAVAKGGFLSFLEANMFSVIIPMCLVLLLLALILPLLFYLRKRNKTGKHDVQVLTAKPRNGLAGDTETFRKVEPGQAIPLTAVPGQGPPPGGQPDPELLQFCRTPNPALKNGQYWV

B1: anti-CD20/anti-CD3 TCB molecule H: "1+1 CrossMab" with charge modifications (VH/VL exchange in CD3 binder, charge modification in CD20 binder) (bispecific antibody, human IgG1, kappa, N297G)
heavy 1: not shown
heavy 2: QAVVTQEPSLTVSPGGTVTLTCGSSTGAVTTSNYANWVQEKPGQAFRGLIGGTNKRAPGTPARFSGSLLGGKAALTLSGAQPEDEAEYYCALWYSNLWVFGGGTKLTVLSSASTKGPSVFPLAPSSKSTSGGTAALGCLVKDYFPEPVTVSWNSGALTSGVHTFPAVLQSSGLYSLSSVVTVPSSSLGTQTYICNVNHKPSNTKVDKKVEPKSCDKTHTCPPCPAPELLGGPSVFLFPPKPKDTLMISRTPEVTCVVVDVSHEDPEVKFNWYVDGVEVHNAKTKPREEQYGSTYRVVSVLTVLHQDWLNGKEYKCKVSNKALPAPIEKTISKAKGQPREPQVYTLPPCRDELTKNQVSLWCLVKGFYPSDIAVEWESNGQPENNYKTTPPVLDSDGSFFLYSKLTVDKSRWQQGNVFSCSVMHEALHNHYTQKSLSLSP
light 1: DIVMTQTPLSLPVTPGEPASISCRSSKSLLHSNGITYLYWYLQKPGQSPQLLIYQMSNLVSGVPDRFSGSGSGTDFTLKISRVEAEDVGVYYCAQNLELPYTFGGGTKVEIKRTVAAPSVFIFPPSDRKLKSGTASVVCLLNNFYPREAKVQWKVDNALQSGNSQESVTEQDSKDSTYSLSSTLTLSKADYEKHKVYACEVTHQGLSSPVTKSFNRGEC
light 2: EVQLLESGGGLVQPGGSLRLSCAASGFTFSTYAMNWVRQAPGKGLEWVSRIRSKYNNYATYYADSVKGRFTISRDDSKNTLYLQMNSLRAEDTAVYYCVRHGNFGNSYVSWFAYWGQGTLVTVSSASVAAPSVFIFPPSDEQLKSGTASVVCLLNNFYPREAKVQWKVDNALQSGNSQESVTEQDSKDSTYSLSSTLTLSKADYEKHKVYACEVTHQGLSSPVTKSFNRGEC
EC50 of tumor cell lysis (LDH release), Z138 cells + human PBMCs, 21-24 h, panel A [1]: 0.0175 nM
EC50 24 h of CD4 T cell activation, Z138 cells (average of 3 donors) [2]: 0.122 nM
EC50 24 h of CD8 T cell activation, Z138 cells (average of 3 donors) [2]: 0.175 nM
EC50 24 h of tumor lysis, Z138 cells (average of 3 donors) [2]: 0.751 nM
EC50 24 h of tumor lysis, Ocly-18 cells [3]: 0.25 nM
EC50 24 h of tumor lysis, SU-DHL-5 cells [3]: 0.0697 nM
EC50 24 h of tumor lysis, SU-DHL-8 cells [3]: 0.219 nM
EC50 24 h of tumor lysis, Toledo cells [3]: 0.12 nM
EC50 24 h of tumor lysis, U2932 cells [3]: 0.0727 nM
EC50 24 h of B cell depletion in normal human whole blood [4]: 3.75 nM
EC50 of CD3 activation, Jurkat-NFAT reporter cells co-cultured with Z138 cells (luminescence, 6 h) [5]: 1 nM

B2: anti-Her3/anti-CD3 "2+1 IgG CrossFab" molecule with charge modifications (Her3 TCB) (bispecific antibody)
chain 1: not shown
chain 2: QVQLVQSGAEVKKPGASVKVSCKASGYTFRSSYISWVRQAPGQGLEWMGWIYAGTGSPSYNQKLQGRVTMTTDTSTSTAYMELRSLRSDDTAVYYCARHRDYYSNSLTYWGQGTLVTVSSASTKGPSVFPLAPSSKSTSGGTAALGCLVEDYFPEPVTVSWNSGALTSGVHTFPAVLQSSGLYSLSSVVTVPSSSLGTQTYICNVNHKPSNTKVDEKVEPKSCDKTHTCPPCPAPEAAGGPSVFLFPPKPKDTLMISRTPEVTCVVVDVSHEDPEVKFNWYVDGVEVHNAKTKPREEQYNSTYRVVSVLTVLHQDWLNGKEYKCKVSNKALGAPIEKTISKAKGQPREPQVCTLPPSRDELTKNQVSLSCAVKGFYPSDIAVEWESNGQPENNYKTTPPVLDSDGSFFLVSKLTVDKSRWQQGNVFSCSVMHEALHNHYTQKSLSLSP
chain 3: not shown
light: EVQLLESGGGLVQPGGSLRLSCAASGFTFSTYAMNWVRQAPGKGLEWVSRIRSKYNNYATYYADSVKGRFTISRDDSKNTLYLQMNSLRAEDTAVYYCVRHGNFGNSYVSWFAYWGQGTLVTVSSASVAAPSVFIFPPSDEQLKSGTASVVCLLNNFYPREAKVQWKVDNALQSGNSQESVTEQDSKDSTYSLSSTLTLSKADYEKHKVYACEVTHQGLSSPVTKSFNRGEC
EC50 of Caspase 3/7 activity (luminescence) in KPL-4-Caspase-3/7 GloSensor target cells + PBMCs, 6.5 h [6]: 0.0007 nM
EC50 of tumor cell lysis (LDH release), KPL4 cells + human PBMCs, 24 h [6]: 0.00254 nM
EC50 of tumor cell lysis (LDH release), KPL4 cells + human PBMCs, 48 h [6]: 0.00053 nM
EC50 of activation of Jurkat-NFAT reporter cells co-cultured with KPL4 cells (luminescence, 5 h) [7]: 0.022 nM

B3: anti-Her2/anti-CD3 "2+1 IgG CrossFab, inverted" molecule with charge modifications (Her2 TCB) (bispecific antibody)
chain 1: not shown
chain 2: not shown
chain 3: not shown
light: EVQLLESGGGLVQPGGSLRLSCAASGFTFSTYAMNWVRQAPGKGLEWVSRIRSKYNNYATYYADSVKGRFTISRDDSKNTLYLQMNSLRAEDTAVYYCVRHGNFGNSYVSWFAYWGQGTLVTVSSASVAAPSVFIFPPSDEQLKSGTASVVCLLNNFYPREAKVQWKVDNALQSGNSQESVTEQDSKDSTYSLSSTLTLSKADYEKHKVYACEVTHQGLSSPVTKSFNRGEC
EC50 of activation of Jurkat-NFAT reporter cells co-cultured with KPL4 cells (luminescence, 5 h) [7]: 0.0344 nM

B4: anti-CD20/anti-CD3 TCB molecule C: "2+1 IgG CrossFab" with charge modifications (VH/VL exchange in CD3 binder, charge modification in CD20 binders) (bispecific antibody)
heavy 1: not shown
heavy 2: QVQLVQSGAEVKKPGSSVKVSCKASGYAFSYSWINWVRQAPGQGLEWMGRIFPGDGDTDYNGKFKGRVTITADKSTSTAYMELSSLRSEDTAVYYCARNVFDGYWLVYWGQGTLVTVSSASTKGPSVFPLAPSSKSTSGGTAALGCLVEDYFPEPVTVSWNSGALTSGVHTFPAVLQSSGLYSLSSVVTVPSSSLGTQTYICNVNHKPSNTKVDEKVEPKSCDKTHTCPPCPAPEAAGGPSVFLFPPKPKDTLMISRTPEVTCVVVDVSHEDPEVKFNWYVDGVEVHNAKTKPREEQYNSTYRVVSVLTVLHQDWLNGKEYKCKVSNKALGAPIEKTISKAKGQPREPQVCTLPPSRDELTKNQVSLSCAVKGFYPSDIAVEWESNGQPENNYKTTPPVLDSDGSFFLVSKLTVDKSRWQQGNVFSCSVMHEALHNHYTQKSLSLSP
light 1: DIVMTQTPLSLPVTPGEPASISCRSSKSLLHSNGITYLYWYLQKPGQSPQLLIYQMSNLVSGVPDRFSGSGSGTDFTLKISRVEAEDVGVYYCAQNLELPYTFGGGTKVEIKRTVAAPSVFIFPPSDRKLKSGTASVVCLLNNFYPREAKVQWKVDNALQSGNSQESVTEQDSKDSTYSLSSTLTLSKADYEKHKVYACEVTHQGLSSPVTKSFNRGEC
light 2: EVQLLESGGGLVQPGGSLRLSCAASGFTFSTYAMNWVRQAPGKGLEWVSRIRSKYNNYATYYADSVKGRFTISRDDSKNTLYLQMNSLRAEDTAVYYCVRHGNFGNSYVSWFAYWGQGTLVTVSSASVAAPSVFIFPPSDEQLKSGTASVVCLLNNFYPREAKVQWKVDNALQSGNSQESVTEQDSKDSTYSLSSTLTLSKADYEKHKVYACEVTHQGLSSPVTKSFNRGEC
EC50 of tumor cell lysis (LDH release), Z138 cells + human PBMCs, 21-24 h, panel B [1]: 0.0433 nM

B5: anti-CD20/anti-CD3 TCB molecule A: "2+1 IgG CrossFab, inverted" without charge modifications (CH1/CL exchange in CD3 binder) (bispecific antibody)
chain 1: not shown
chain 2: QVQLVQSGAEVKKPGSSVKVSCKASGYAFSYSWINWVRQAPGQGLEWMGRIFPGDGDTDYNGKFKGRVTITADKSTSTAYMELSSLRSEDTAVYYCARNVFDGYWLVYWGQGTLVTVSSASTKGPSVFPLAPSSKSTSGGTAALGCLVKDYFPEPVTVSWNSGALTSGVHTFPAVLQSSGLYSLSSVVTVPSSSLGTQTYICNVNHKPSNTKVDKKVEPKSCDKTHTCPPCPAPEAAGGPSVFLFPPKPKDTLMISRTPEVTCVVVDVSHEDPEVKFNWYVDGVEVHNAKTKPREEQYNSTYRVVSVLTVLHQDWLNGKEYKCKVSNKALGAPIEKTISKAKGQPREPQVCTLPPSRDELTKNQVSLSCAVKGFYPSDIAVEWESNGQPENNYKTTPPVLDSDGSFFLVSKLTVDKSRWQQGNVFSCSVMHEALHNHYTQKSLSLSP
chain 3: QAVVTQEPSLTVSPGGTVTLTCGSSTGAVTTSNYANWVQEKPGQAFRGLIGGTNKRAPGTPARFSGSLLGGKAALTLSGAQPEDEAEYYCALWYSNLWVFGGGTKLTVLSSASTKGPSVFPLAPSSKSTSGGTAALGCLVKDYFPEPVTVSWNSGALTSGVHTFPAVLQSSGLYSLSSVVTVPSSSLGTQTYICNVNHKPSNTKVDKKVEPKSC
chain 4: DIVMTQTPLSLPVTPGEPASISCRSSKSLLHSNGITYLYWYLQKPGQSPQLLIYQMSNLVSGVPDRFSGSGSGTDFTLKISRVEAEDVGVYYCAQNLELPYTFGGGTKVEIKRTVAAPSVFIFPPSDEQLKSGTASVVCLLNNFYPREAKVQWKVDNALQSGNSQESVTEQDSKDSTYSLSSTLTLSKADYEKHKVYACEVTHQGLSSPVTKSFNRGEC
EC50 of tumor cell lysis (LDH release), Z138 cells + human PBMCs, 21-24 h, panel A [1]: 0.00076 nM

B6: anti-MCSP/anti-CD3 "(Fab)2-CrossFab" molecule with charge modifications in the MCSP binders ((Fab)2-XFab-LC007cv) (bispecific antibody)
chain 1: EVQLQESGPGLVKPSQSLSLTCSVTGYSITSGYYWNWIRQFPGNKLEWMGYITYDGSNNYNPSLKNRISITRDTSKNQFFLKLNSVTTEDTATYYCADFDYWGQGTTLTVSSASTKGPSVFPLAPSSKSTSGGTAALGCLVEDYFPEPVTVSWNSGALTSGVHTFPAVLQSSGLYSLSSVVTVPSSSLGTQTYICNVNHKPSNTKVDEKVEPKSCDGGGGSGGGGSEVQLQESGPGLVKPSQSLSLTCSVTGYSITSGYYWNWIRQFPGNKLEWMGYITYDGSNNYNPSLKNRISITRDTSKNQFFLKLNSVTTEDTATYYCADFDYWGQGTTLTVSSASTKGPSVFPLAPSSKSTSGGTAALGCLVEDYFPEPVTVSWNSGALTSGVHTFPAVLQSSGLYSLSSVVTVPSSSLGTQTYICNVNHKPSNTKVDEKVEPKSCDGGGGSGGGGSDIQMTQSPSSLSASVGDRVTITCRASQDIRNYLNWYQQKPGKAPKLLIYYTSRLESGVPSRFSGSGSGTDYTLTISSLQPEDFATYYCQQGNTLPWTFGQGTKVEIKSSASTKGPSVFPLAPSSKSTSGGTAALGCLVKDYFPEPVTVSWNSGALTSGVHTFPAVLQSSGLYSLSSVVTVPSSSLGTQTYICNVNHKPSNTKVDKKVEPKSC
chain 2: EVQLVESGGGLVQPGGSLRLSCAASGYSFTGYTMNWVRQAPGKGLEWVALINPYKGVSTYNQKFKDRFTISVDKSKNTAYLQMNSLRAEDTAVYYCARSGYYGDSDWYFDVWGQGTLVTVSSASVAAPSVFIFPPSDEQLKSGTASVVCLLNNFYPREAKVQWKVDNALQSGNSQESVTEQDSKDSTYSLSSTLTLSKADYEKHKVYACEVTHQGLSSPVTKSFNRGEC
chain 3: DIVLTQSPSSLSASLGDRVTISCSASQGIRNYLNWYQQRPDGTVKLLIYYTSSLHSGVPSRFSGSGSGTDYSLTISNLEPEDIATYYCQQYSKLPWTFGGGTKLEIKRTVAAPSVFIFPPSDRKLKSGTASVVCLLNNFYPREAKVQWKVDNALQSGNSQESVTEQDSKDSTYSLSSTLTLSKADYEKHKVYACEVTHQGLSSPVTKSFNRGEC
notes: The chains are one heavy chain, the anti-MCSP Fab light chain (twice); No Fc domain
EC50 [8]: 2.3 nM
binding result [9]: binds
EC50 of tumor cell lysis (LDH release), MV-3 cells + human PBMCs, 24 h [10]: 0.0028 nM
EC50 of tumor cell lysis (LDH release), MV-3 cells + human PBMCs, 48 h [10]: 0.0086 nM
